Data: US20180038857A1
One block for each substance: values may come before it.

What was measured:
Assay in all cases: cell-based or functional assay
[1] = molecular target: T1, hCCR6 (human) (UniProt P51684)
T1 sequence (looked up): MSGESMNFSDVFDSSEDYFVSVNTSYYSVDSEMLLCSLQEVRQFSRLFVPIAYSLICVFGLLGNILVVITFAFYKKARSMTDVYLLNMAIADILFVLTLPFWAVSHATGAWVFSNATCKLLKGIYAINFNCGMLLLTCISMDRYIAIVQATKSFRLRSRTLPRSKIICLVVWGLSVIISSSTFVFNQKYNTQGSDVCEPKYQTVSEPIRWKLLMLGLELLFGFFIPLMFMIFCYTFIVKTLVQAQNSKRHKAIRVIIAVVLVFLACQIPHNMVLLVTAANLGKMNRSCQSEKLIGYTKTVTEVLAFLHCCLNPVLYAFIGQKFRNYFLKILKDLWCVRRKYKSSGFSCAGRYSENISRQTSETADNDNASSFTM

[2] = molecular target: hCXCR3 (human) (UniProt P49682)
[3] = molecular target: hCCR3 (human) (UniProt P51677)
[4] = molecular target: hCCR9 (human) (UniProt P51686)
hCCR9 (human), sequence (P51686 whole entry): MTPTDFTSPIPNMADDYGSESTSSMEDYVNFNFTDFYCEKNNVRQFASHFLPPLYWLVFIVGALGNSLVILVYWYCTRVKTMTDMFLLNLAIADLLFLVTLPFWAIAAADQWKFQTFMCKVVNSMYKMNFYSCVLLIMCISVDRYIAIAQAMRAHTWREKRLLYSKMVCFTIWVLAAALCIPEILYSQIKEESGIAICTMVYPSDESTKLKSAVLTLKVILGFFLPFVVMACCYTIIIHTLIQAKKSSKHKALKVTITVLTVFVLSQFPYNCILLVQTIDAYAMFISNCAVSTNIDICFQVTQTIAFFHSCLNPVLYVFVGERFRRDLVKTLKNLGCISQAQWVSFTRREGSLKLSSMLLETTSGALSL

UniProt O15444, sequence (O15444 other isoform, or with tags, fused parts or gaps limits assumed): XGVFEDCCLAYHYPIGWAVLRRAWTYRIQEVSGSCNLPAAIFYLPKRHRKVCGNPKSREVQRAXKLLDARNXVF
hCXCR3 (human), sequence (P49682 whole entry): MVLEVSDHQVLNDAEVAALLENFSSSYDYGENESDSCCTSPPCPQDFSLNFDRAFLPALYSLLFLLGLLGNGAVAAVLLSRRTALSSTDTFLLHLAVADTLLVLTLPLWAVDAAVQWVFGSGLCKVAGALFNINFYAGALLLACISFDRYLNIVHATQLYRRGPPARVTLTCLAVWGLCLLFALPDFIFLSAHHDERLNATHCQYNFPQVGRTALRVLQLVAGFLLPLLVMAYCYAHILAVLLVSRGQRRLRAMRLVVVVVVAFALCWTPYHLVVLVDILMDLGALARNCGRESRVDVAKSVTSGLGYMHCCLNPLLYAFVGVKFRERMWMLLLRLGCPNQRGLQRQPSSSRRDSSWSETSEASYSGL
hCCR3 (human), sequence (P51677 whole entry): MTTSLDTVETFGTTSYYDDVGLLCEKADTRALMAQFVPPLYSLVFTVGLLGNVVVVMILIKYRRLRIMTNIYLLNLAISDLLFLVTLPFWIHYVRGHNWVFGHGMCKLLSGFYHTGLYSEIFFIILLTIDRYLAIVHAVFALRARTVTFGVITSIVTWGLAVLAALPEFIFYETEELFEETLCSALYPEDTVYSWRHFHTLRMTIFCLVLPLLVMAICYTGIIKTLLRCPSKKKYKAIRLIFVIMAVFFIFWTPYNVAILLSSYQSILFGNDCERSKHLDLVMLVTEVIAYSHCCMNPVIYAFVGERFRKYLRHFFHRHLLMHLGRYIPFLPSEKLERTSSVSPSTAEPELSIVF
recombinant native MIP-3α, sequence (P78556 27-96 limits assumed): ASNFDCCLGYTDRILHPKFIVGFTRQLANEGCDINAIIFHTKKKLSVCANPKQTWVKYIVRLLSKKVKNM

EC50, agonist activity in an Aequorin assay [1]: 1 nM
Substance: recombinant native MIP-3α (from UniProt P78556 27-96) (ligand)

EC50, agonist activity in an Aequorin assay [2]: 4.4 nM
Substance: recombinant native IP-10 (from UniProt P02778 22-98) (ligand)

EC50, activity in an Aequorin assay (agonist) [3]: 10.7 nM
Substance: recombinant native eotaxin (from UniProt P51671 24-97) (ligand)

The remaining lines, values behind:

Substance: biotinTECK(Met to Nleu substitution) (CCL25): TECK derivatised at the ε-amino side chain functionality of Lys72 with PEG-Biotin (from UniProt O15444 25-97) (ligand)
EC50, agonist activity in an Aequorin assay [4]: 63.6 nM

Substance: recombinant native TECK (from UniProt O15444 24-150) (ligand)
EC50, agonist activity in an Aequorin assay [4]: 67.9 nM
